This is an account of results in paper PMC7603314, “Broad-complex transcription factor mediates opposing hormonal regulation of two phylogenetically distant arginine kinase genes in Tribolium castaneum” (Communications Biology, 2020).

Substrate in the data set: N=C(N)NCCC[C@H](N)C(=O)O
The data set is described as follows: purified protein. The data set is classed as biochemical, Tribolium castaneum. The settings on record: forward reaction, 0.9 mM ATP, 20 mM MgCl2, 50 mM Tris-HCl pH 7.5, 30 °C, L-arginine varied 0.2-10 mM.

B1: TcAK1 (Tribolium castaneum) (protein)
chain: MVDAAVLEKLEAGFKKLEASDSKSLLKKYLTRELFDKLKTKKTSFGSTLLDVIQSGLENHDSGIGIYAPDADSYSVFADLFDPIIEDYHGGFKKTDKHPPKDWGDVNAFGNLDPAGEFVVSTRVRCGRSLEGYPFNPCLTEEQYKEMEQKVSSTLSGLEGELKGTFYPLTGMSKEVQQKLIDDHFLFKEGDRFLQAANACRFWPTGRGIFHNDAKTFLVWCNEEDHLRIISMQMGGDLGQVYRRLVTGVNDIEKRLPFSHSDRFGFLTFCPTNLGTTVRASVHIKVPKLAANKAKLDEVAAKFNLQVRGTRGEHTEAEGGVYDISNKRRMGLTEFDAVKEMYDGISEIIKMEKEL
notes: His-tagged in pQE-30-XA, E. coli M15, Ni-NTA; signature CP(S/T)N(I/L)GT at 270-276
The term Km denotes the concentration of substrate that gives half-maximal velocity. The term kcat denotes the maximal rate divided by the concentration of active sites. By kcat/Km is commonly meant the turnover number divided by the Michaelis constant. As for B1, the Km came to 1500 ± 20 µM, the kcat amounted to 172.7 ± 5.8 s⁻¹ and the kcat/Km came out at 113000 M⁻¹ s⁻¹.

B2: TcAK2 (Tribolium castaneum) (protein)
chain: MAKAKCHNCETKCGKGKINPEVLTKLEDGFRRLATSNSQSLLKKYLTQAVFDKLKSKKTGFGSTLLDCIQSGLENPDSNIGVYAPDPEAYTVFAELFDPIIDEYHGGFKKTDQHPASTWGDLKSIGDVDPDQKYVVSTRIRCGRSLAGYPFNPCLTEAQYKEMEKKVSGTLMSLTGELKGKYYPLTGMSKRDQQQLIDDHFLFKEGDRFLQAANACRFWPTGRGIFHNTKKTFLVWLNEEDHLRIISMQKGGNVGEVYQRLVCAVEEIETKLKFSRSDRFGYLTFCPTNLGTTIRASVHIQVPKLAKDKAKLEAVANQFNLQVRGTRGEHSEAEEGVYDISNRRRLGLTEYDAVKEMHDGILKIIEMESCM
notes: His-tagged in pQE-30-XA, E. coli M15, Ni-NTA; signature CP(S/T)N(I/L)GT at 286-292
With B2, the Km stood at 3700 ± 40 µM, the kcat is 12.7 ± 0.95 s⁻¹ and the kcat/Km came to 3500 M⁻¹ s⁻¹.
